Experimental data taken from doi:10.1101/552281 (bioRxiv, 2019).
Residue numbers refer to the chain shown, from its start. Names may count otherwise. Read-outs that look alike come from different tables or passages of the source. Each block holds one molecule with its values, some of them ahead of it.

Key:
[1] = molecular target: catalytic domain of human phenylalanine hydroxylase (hPAH-CD) (human); assay: crystal structure
[2] = molecular target: the molecule itself; assay: crystal structure
[3] = molecular target: the molecule itself; assay: cryo-EM structure
[4] = molecular target: the molecule itself

stoichiometry N [1]: 2
Molecule: catalytic domain of human phenylalanine hydroxylase (hPAH-CD) (domain or fragment)

B1: ΔN13-hPAH (human phenylalanine hydroxylase lacking the N-terminal 13 residues) (enzyme, UniProt P00439 14-452, looked up)
chain: KLSDFGQETSYIEDNCNQNGAISLIFSLKEEVGALAKVLRLFEENDVNLTHIESRPSRLKKDEYEFFTHLDKRSLPALTNIIKILRHDIGATVHELSRDKKKDTVPWFPRTIQELDRFANQILSYGAELDADHPGFKDPVYRARRKQFADIAYNYRHGQPIPRVEYMEEEKKTWGTVFKTLKSLYKTHACYEYNHIFPLLEKYCGFHEDNIPQLEDVSQFLQTCTGFRLRPVAGLLSSRDFLGGLAFRVFHCTQYIRHGSKPMYTPEPDICHELLGHVPLFSDRSFAQFSQEIGLASLGAPDEYIEKLATIYWFTVEFGLCKQGDSIKAYGAGLLSSFGELQYCLSEKPKLLPLELEKTAIQNYTVTEFQPLYYVAESFNDAKEKVRNFAATIPRPFSVRYDPYTQRIEVLDNTQQLKILADSINSEIGILCSALQKIK
stoichiometry N [2]: 4

B2: full-length human phenylalanine hydroxylase (enzyme, UniProt P00439 1-452, looked up)
chain: MSTAVLENPGLGRKLSDFGQETSYIEDNCNQNGAISLIFSLKEEVGALAKVLRLFEENDVNLTHIESRPSRLKKDEYEFFTHLDKRSLPALTNIIKILRHDIGATVHELSRDKKKDTVPWFPRTIQELDRFANQILSYGAELDADHPGFKDPVYRARRKQFADIAYNYRHGQPIPRVEYMEEEKKTWGTVFKTLKSLYKTHACYEYNHIFPLLEKYCGFHEDNIPQLEDVSQFLQTCTGFRLRPVAGLLSSRDFLGGLAFRVFHCTQYIRHGSKPMYTPEPDICHELLGHVPLFSDRSFAQFSQEIGLASLGAPDEYIEKLATIYWFTVEFGLCKQGDSIKAYGAGLLSSFGELQYCLSEKPKLLPLELEKTAIQNYTVTEFQPLYYVAESFNDAKEKVRNFAATIPRPFSVRYDPYTQRIEVLDNTQQLKILADSINSEIGILCSALQKIK
stoichiometry N [3]: 4

B3: hPAH mutant Y377F (enzyme, human, UniProt P00439 1-452, looked up)
chain: B2 chain with Y377F
stoichiometry N [4]: 4

B4: hPAH mutant S23A (enzyme, human, UniProt P00439 1-452, looked up)
chain: B2 chain with S23A
stoichiometry N [4]: 4

B5: hPAH mutant Y138F (enzyme, human, UniProt P00439 1-452, looked up)
chain: B2 chain with Y138F
stoichiometry N [4]: 4
